# According to article PMC12291119 (2025):
# Bridge positions count the residues as written; N and C are the ends. Square brackets hold non-standard residues; d marks the D form. Primed or numbered codes have the meaning given here. Ends that are not written are not given here. * marks the point of attachment. Man9GlcNAc2 = CC(=O)N[C@@H]1[C@@H](O)[C@H](O[C@@H]2O[C@H](CO)[C@@H](O[C@@H]3O[C@H](CO[C@H]4O[C@H](CO[C@H]5O[C@H](CO)[C@@H](O)[C@H](O)[C@@H]5O[C@H]5O[C@H](CO)[C@@H](O)[C@H](O)[C@@H]5O)[C@@H](O)[C@H](O[C@H]5O[C@H](CO)[C@@H](O)[C@H](O)[C@@H]5O[C@H]5O[C@H](CO)[C@@H](O)[C@H](O)[C@@H]5O)[C@@H]4O)[C@@H](O)[C@H](O[C@H]4O[C@H](CO)[C@@H](O)[C@H](O)[C@@H]4O[C@H]4O[C@H](CO)[C@@H](O)[C@H](O)[C@@H]4O[C@H]4O[C@H](CO)[C@@H](O)[C@H](O)[C@@H]4O)[C@@H]3O)[C@H](O)[C@H]2NC(C)=O)[C@@H](CO)O[C@H]1*; Hpra′ = its azide, alkyne or alkene has reacted where a group follows in round brackets
# B1: PGT128 (antibody, V domains shown)
# VH: QPQLQESGPTLVEASETLSLTCAVSGDSTAACNSFWGWVRQPPGKGLEWVGSLSHCASYWNRGWTYHNPSLKSRLTLALDTPKNLVFLKLNSVTAADTATYYCARFGGEVLRYTDWPKPAWVDLWGRGTLVTVSS
# VL: QSALTQPPSASGSPGQSITISCTGTSNNFVSWYQQHAGKAPKLVIYDVNKRPSGVPDRFSGSKSGNTASLTVSGLQTDDEAVYYCGSLVGNWDVIFGGGTKLTVL
# Assays:
# Assay in all cases: BLI
# PGT128 [1] = target: B1
# [2] = target: random scrambled version of the H1 sequence containing three glycans and cyclization (peptide 6) (three Man9GlcNAc2 glycans attached by CuAAC on homopropargylglycine (printed as M); cyclized; biotin on the C-terminal lysine)
# [3] = target: H1 mutant without the glycans at the second and third glycosylation sites (peptide 4) (Man9GlcNAc2 by CuAAC on homopropargylglycine at the first glycosylation site only; biotin on the C-terminal lysine)
# [4] = target: H1 mutant without the glycan at the first of the three glycosylation sites (peptide 3) (Man9GlcNAc2 by CuAAC on homopropargylglycine at the second and third glycosylation sites only; biotin on the C-terminal lysine)
# PGT128 [5] = target: B1; remark: listed apart in the source
# m14 = target: m14
# [6] = target: GB1R-non-glycosylated peptide (12)
# m13 = target: m13
# m12 = target: m12
binder,measurement,setting,value
"SIKLINQ[Hpra′](Man9GlcNAc2)[Hpra′](Man9GlcNAc2)TTNPHLRLHIGDIRRLIKDLY[Hpra′](Man9GlcNAc2)FRVYYRPTNSGRRLFVN (not fully specified (C-terminus); also: Man9GlcNAc2 attached by CuAAC, biotin on the C-terminal lysine (no K at C-terminus of given chain)) [L1 glycopeptide (peptide 8)]",koff,PGT128 [1],0.000645 s⁻¹
"LFKPYPKIGDIRKARC[Hpra′](Man9GlcNAc2)LQHTLHHRTNKQPSYRRRLKTLIPLFRRC[Hpra′](Man9GlcNAc2)L (not fully specified (C-terminus); cysteine pairing not given here; also: Man9GlcNAc2 attached by CuAAC, biotin on the C-terminal lysine (no K at C-terminus of given chain)) [H22 glycopeptide (peptide 2)]",koff,PGT128 [1],0.00635 s⁻¹
B1,koff,[2],0.0132 s⁻¹
same,Kd,[3],21.1 nM
same,koff,[3],0.00221 s⁻¹
same,Kd,[4],0.94 nM
same,koff,[4],5.6e-05 s⁻¹
"YTEKHNGIAAIAPAIC[Hpra′](Man9GlcNAc2)NSKNQNHRCNHYQIKLYIH[Hpra′](Man9GlcNAc2)L[Hpra′](Man9GlcNAc2)RLPHNYRNS (not fully specified (C-terminus); cysteine pairing not given here; also: Man9GlcNAc2 attached by CuAAC, biotin on the C-terminal lysine (no K at C-terminus of given chain)) [H1 mutant with IGDIR changed to IAAIA (peptide 5)]",koff,PGT128 [1],0.00212 s⁻¹
same,Kd,PGT128 [5],12.4 nM
gl-PGT121 (protein) chain 1: SYVLTQPPSVSVAPGQTARITCGGNNIGSKSVHWYQQKPGQAPVLVVYDDSDRPSGIPERFSGSNSGNTATLTISRVEAGDEADYYCQVWDSSSDHPWVFGGGTKLTVLGQPKAAPSVTLFPPSSEELQANKATLVCLISDFYPGAVTVAWKADSSPVKAGVETTTPSKQSNNKYAASSYLSLTPEQWKSHRSYSCQVTHEGSTVEKTVAPTECS chain 2: QVQLQESGPGLVKPSETLSLTCTVSGGSISSYYWSWIRQPPGKGLEWIGYIYYSGSTNYNPSLKSRVTISVDTSKNQFSLKLSSVTAADTAVYYCARTQQGKRIYGVVSFGDYYYYYYMDVWGKGTTVTVSSASTKGPSVFPLAPSSKSTSGGTAALGCLVKDYFPEPVTVSWNSGALTSGVHTFPAVLQSSGLYSLSSVVTVPSSSLGTQTYICNVNHKPSNTKVDKRVEPKSCDKTHHHHHH,Kd,m14,570 nM
same,koff,m14,0.00262 s⁻¹
same,Kd,[6],710 nM
same,koff,[6],0.00199 s⁻¹
"YTEKHNGIGDIRPAIC[Hpra′](Man9GlcNAc2)NSKNQNHRCNHYQIKLYIH[Hpra′](Man9GlcNAc2)L[Hpra′](Man9GlcNAc2)RLPHNYRNS (linker 16-26 via m‑dibromoxylene (inferred); not fully specified (C-terminus); also: Man9GlcNAc2 attached by CuAAC, biotin on the C-terminal lysine (no K at C-terminus of given chain)) [H1 glycopeptide (peptide 1)]",koff,PGT128 [1],6.3e-05 s⁻¹
m2 (protein) chain 1: QVHLQESGPGLVKPSETLSLTCNVSGTLVRDNYWSWIRQPLGKQPEWIGYVHDSGDTNYNPSLKSRVHLSLDKSKNLVSLRLTGVTAADSAIYYCATTKHGRRIYGVVAFKEWFTYFYMDVWGKGTSVTVSS chain 2: APTFVSVAPGQTARITCGEESLGSRSVIWYQQRPGQAPSLIIYNNNDRPSGIPDRFSGSPGSTFGTTATLTITSVEAGDEADYYCHIWDSRRPTNWVFGEGTTLIVL,koff,m13,0.000202 s⁻¹
same,koff,m12,0.000802 s⁻¹
"YTEKHNGIGDIRPAIC(iodoacetamide)[Hpra′](Man9GlcNAc2)NSKNQNHRC(iodoacetamide)NHYQIKLYIH[Hpra′](Man9GlcNAc2)L[Hpra′](Man9GlcNAc2)RLPHNYRNS (not fully specified (C-terminus); also: Man9GlcNAc2 attached by CuAAC, biotin on the C-terminal lysine (no K at C-terminus of given chain)) [acyclic H1 variant (peptide 7)]",koff,PGT128 [1],0.00616 s⁻¹
